Experimental findings from patent CN113683697A (SHANGHAI XIANGYAO BIOTECHNOLOGY CO LTD, dated 2021) are described below.

In experiment [1] the target is T1, B7-H3 (4Ig-B7-H3) endogenously expressed on MDA-MB-231 cells (UniProt Q5ZPR3 29-534, limits assumed).
T1 construct: whole, on cells; also called 细胞表面的B7-H3抗原
T1 sequence (looked up): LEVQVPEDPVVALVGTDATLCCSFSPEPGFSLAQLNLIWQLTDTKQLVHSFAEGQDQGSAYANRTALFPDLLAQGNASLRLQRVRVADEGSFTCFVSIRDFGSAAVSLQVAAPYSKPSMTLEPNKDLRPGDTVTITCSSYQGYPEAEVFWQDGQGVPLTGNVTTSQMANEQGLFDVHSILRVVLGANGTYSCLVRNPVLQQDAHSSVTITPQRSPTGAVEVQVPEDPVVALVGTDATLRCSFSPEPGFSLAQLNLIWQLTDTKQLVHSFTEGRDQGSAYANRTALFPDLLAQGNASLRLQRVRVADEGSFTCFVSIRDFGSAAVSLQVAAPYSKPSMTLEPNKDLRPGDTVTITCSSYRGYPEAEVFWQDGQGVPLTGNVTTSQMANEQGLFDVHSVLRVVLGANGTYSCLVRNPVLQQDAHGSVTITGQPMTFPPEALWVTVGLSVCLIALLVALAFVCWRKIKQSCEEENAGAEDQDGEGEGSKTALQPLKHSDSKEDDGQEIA
As to the kind of experiment: FACS titration on MDA-MB-231 cells.

The target in experiment [2] is T1, B7-H3 (4Ig-B7-H3) endogenously …. As to the kind of experiment: FACS, MDA-MB-231 cells.
Experiment [3] has as its target T2, 人B7-H3变体1(4Ig-B7-H3) on stable cells 293-h4Ig-B7-H3-copGFP (human, UniProt Q5ZPR3 29-534).
T2 construct: Full-length CDS cloned in pCDH-EF1-T2A-copGFP and expressed on stably transduced cells; residues left by T2A cleavage not described
T2 sequence: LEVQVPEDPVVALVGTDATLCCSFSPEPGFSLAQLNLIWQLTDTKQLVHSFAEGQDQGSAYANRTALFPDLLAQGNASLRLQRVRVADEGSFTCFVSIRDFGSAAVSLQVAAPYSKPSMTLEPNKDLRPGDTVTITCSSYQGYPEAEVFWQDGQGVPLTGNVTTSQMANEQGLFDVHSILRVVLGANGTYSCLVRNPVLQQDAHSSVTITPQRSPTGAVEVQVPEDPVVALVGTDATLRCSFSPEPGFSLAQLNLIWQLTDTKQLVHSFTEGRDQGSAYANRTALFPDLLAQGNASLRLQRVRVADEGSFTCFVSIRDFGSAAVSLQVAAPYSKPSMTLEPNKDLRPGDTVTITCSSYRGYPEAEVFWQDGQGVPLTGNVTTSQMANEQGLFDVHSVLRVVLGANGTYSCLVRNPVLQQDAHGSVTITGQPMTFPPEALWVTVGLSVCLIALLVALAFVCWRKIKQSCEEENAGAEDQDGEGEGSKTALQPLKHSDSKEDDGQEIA
The experiment in a line: FACS, 293-h4Ig-B7-H3-copGFP stable cells. For orientation: A flow cytometer gives signals particle by particle.

B1: MGA-271 (NCT02475213) (antibody, V domains shown)
VH: EVQLVESGGGLVQPGGSLRLSCAASGFTFSSFGMHWVRQAPGKGLEWVAYISSDSSAIYYADTVKGRFTISRDNAKNSLYLQMNSLRDEDTAVYYCGRGRENIYYGSRLDYWGQGTTVTVSS
VL: DIQLTQSPSFLSASVGDRVTITCKASQNVDTNVAWYQQKPGKAPKALIYSASYRYSGVPSRFSGSGSGTDFTLTISSLQPEDFATYYCQQYNNYPFTFGQGTKLEIK
In the case of B1, the EC50 in experiment [1] was found to be 23.8 µg/mL.

B2: 嵌合抗体xw.M0883B9.27B4 (antibody, human IgG1, kappa, V domains shown)
VH: QVQLQQSGAELARPGASVKLSCKASGYTFTTYWMQWIQQRPGQGLEWIGAIYPGDGGSRYTQRFKGKATMTADPSSSTVYMQLTSLASEDSAVYFCARGGNYISFPMYYWGQGTSVTVSP
VL: DIVMTQSHKFMSTSVGDRVSITCKASRGVSTAVAWYQQKPGQSPKLLIYWASTRHTGVPDRFTGSGSGTDYTLTISSVQAEDLALYYCQQHYDTPYTFGGGTKLEIQR
notes: also called 嵌合抗体27B4; 27B4嵌合抗体
B2: in experiment [1], the EC50 came out at 3.2 µg/mL.

B3: h27B4-H4-L2 (antibody, human IgG1, kappa, V domains shown)
VH: EVQLVQSGAEVKKPGESLKISCKASGYTFTTYWIGWVRQMPGKGLEWMGIIYPGDGGSRYSPSFQGQVTISADKSISTAYLQWSSLKASDTAMYYCARGGNYISFPMYYWGQGTLVTVSS
VL: VIWMTQSPSLLSASTGDRVTISCKASRGVSTALAWYQQKPGKAPELLIYWASTLQSGVPSRFSGSGSGTDFTLTISCLQSEDFATYYCQQHYDTPYTFGQGTKLEIKR
notes: Whole IgG, humanized; optimized hIgG1 (L235V, F243L, R292P, Y300L, P396L) and human kappa; also called zw.M0883B9.27B4Z04
Consider B3, for which the binding result in experiment [2] and in experiment [3] was “binds” in each case.

B4: h27B4-H2-L3 (antibody, human IgG1, kappa, V domains shown)
VH: QVQLVQSGAEVKKPGSSVKVSCKASGYTFTTYWISWVRQAPGQGLEWMGGIYPGDGGSNYAQKFQGRVTITADESTSTAYMELSSLRSEDTAVYYCARGGNYISFPMYYWGQGTLVTVSS
VL: EIVMTQSPATLSVSPGERATLSCKASRGVSTALAWYQQKPGQAPRLLIYWASTRATGIPARFSGSGSGTEFTLTISSLQSEDFAVYYCQQHYDTPYTFGQGTKLEIKR
notes: Whole IgG, humanized; optimized hIgG1 (L235V, F243L, R292P, Y300L, P396L) and human kappa; also called zw.M0883B9.27B4Z03
Take B4: the binding result in experiment [2] and in experiment [3] was “binds” throughout.

Broadly, the EC50 is the midpoint of the concentration-response curve.
